{"source": "paper PMC9022596", "about": "“Convergent Evolution of Antibiotic Tolerance in Patients with Persistent Methicillin-Resistant Staphylococcus aureus Bacteremia” (Infection and Immunity, 2022)", "key": {"[1]": {"system": "CC(=O)SCCNC(=O)CCNC(=O)[C@H](O)C(C)(C)COP(=O)(O)OP(=O)(O)OC[C@H]1O[C@@H](n2cnc3c(N)ncnc32)[C@H](O)[C@@H]1OP(=O)(O)O", "experiment": "purified protein", "conditions": "OAA fixed at 0.5 mM, 0.1 mM DTNB, 100 mM Tris-HCl pH 8.0, room temperature"}, "O=C(O)CC(=O)C(=O)O": {"system": "O=C(O)CC(=O)C(=O)O", "experiment": "purified protein", "conditions": "AcCoA fixed at 0.3 mM, 0.1 mM DTNB, 100 mM Tris-HCl pH 8.0, room temperature"}}}
{"substance": "S. aureus citrate synthase (CS, citZ) (Staphylococcus aureus subsp. aureus USA300)", "values": [{"measurement": "Km", "setting": "[1]", "value": "0.29 (95% CI 0.25 to 0.32) mM"}, {"measurement": "kcat", "setting": "[1]", "value": "41 (95% CI 39 to 43) s-1"}, {"measurement": "Km", "setting": "O=C(O)CC(=O)C(=O)O", "value": "0.03 (95% CI 0.02 to 0.04) mM"}, {"measurement": "kcat", "setting": "O=C(O)CC(=O)C(=O)O", "value": "30 (95% CI 28 to 32) s-1"}]}
